Experimental data: US20050026839A1 (GENERAL HOSPITAL, published 2005)
Read-outs that look alike come from different tables or passages of the source. Square brackets hold non-standard residues; d marks the D form. Ends that are not written are not given here. hArg = N=C(N)NCCCC[C@H](N)C(=O)O; Aib = CC(C)(N)C(=O)O

T1: wild-type human PTH/PTHrP receptor (hP1R-WT) (human, UniProt Q03431 27-593)
T1 sequence (looked up): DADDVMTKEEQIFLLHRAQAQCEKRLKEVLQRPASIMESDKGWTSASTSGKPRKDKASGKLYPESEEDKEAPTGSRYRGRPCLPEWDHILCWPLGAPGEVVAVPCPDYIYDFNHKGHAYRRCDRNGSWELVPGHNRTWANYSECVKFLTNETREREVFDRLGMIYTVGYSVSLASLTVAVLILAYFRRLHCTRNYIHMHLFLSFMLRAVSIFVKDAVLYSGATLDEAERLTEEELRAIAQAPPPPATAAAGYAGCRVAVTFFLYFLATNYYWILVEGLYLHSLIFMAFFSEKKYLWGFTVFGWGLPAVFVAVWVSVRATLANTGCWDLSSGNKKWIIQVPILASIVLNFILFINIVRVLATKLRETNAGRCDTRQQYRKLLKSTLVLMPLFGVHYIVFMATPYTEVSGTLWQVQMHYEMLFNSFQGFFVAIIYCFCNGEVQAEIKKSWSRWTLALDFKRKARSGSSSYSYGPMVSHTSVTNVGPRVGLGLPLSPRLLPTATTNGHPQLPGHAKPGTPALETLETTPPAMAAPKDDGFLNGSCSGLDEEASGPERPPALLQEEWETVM

T2: truncated human P1R deleted for residues (24-181) (hP1R-delNt) (human, UniProt Q03431 182-593)
T2 sequence (looked up): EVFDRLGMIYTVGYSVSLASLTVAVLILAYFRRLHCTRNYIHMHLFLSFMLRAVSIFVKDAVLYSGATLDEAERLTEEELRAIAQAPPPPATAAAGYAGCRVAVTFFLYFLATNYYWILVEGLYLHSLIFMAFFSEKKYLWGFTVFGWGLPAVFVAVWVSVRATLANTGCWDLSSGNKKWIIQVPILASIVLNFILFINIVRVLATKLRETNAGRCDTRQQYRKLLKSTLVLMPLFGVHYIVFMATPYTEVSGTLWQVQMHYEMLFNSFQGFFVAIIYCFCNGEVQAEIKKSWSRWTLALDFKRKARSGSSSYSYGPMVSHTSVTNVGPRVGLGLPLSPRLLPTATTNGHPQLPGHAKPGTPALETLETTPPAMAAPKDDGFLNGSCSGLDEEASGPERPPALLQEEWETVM

B1: [Aib^1,M]PTH(1-14) (peptide)
peptide: [Aib]VAEIQLMHQ[hArg]AKW-NH2
modifications: N-terminus assumed
SMILES: CC[C@H](C)[C@H](NC(=O)[C@H](CCC(=O)O)NC(=O)[C@H](C)NC(=O)[C@@H](NC(=O)C(C)(C)N)C(C)C)C(=O)N[C@@H](CCC(N)=O)C(=O)N[C@@H](CC(C)C)C(=O)N[C@@H](CCSC)C(=O)N[C@@H](Cc1c[nH]cn1)C(=O)N[C@@H](CCC(N)=O)C(=O)N[C@@H](CCCCNC(=N)N)C(=O)N[C@@H](C)C(=O)N[C@@H](CCCCN)C(=O)N[C@@H](Cc1c[nH]c2ccccc12)C(N)=O
notes: also called 622 Aib-1
B2: [Aib^12,M]PTH(1-14) (peptide)
peptide: AVAEIQLMHQ[hArg][Aib]KW-NH2
modifications: N-terminus assumed
SMILES: CC[C@H](C)[C@H](NC(=O)[C@H](CCC(=O)O)NC(=O)[C@H](C)NC(=O)[C@@H](NC(=O)[C@H](C)N)C(C)C)C(=O)N[C@@H](CCC(N)=O)C(=O)N[C@@H](CC(C)C)C(=O)N[C@@H](CCSC)C(=O)N[C@@H](Cc1c[nH]cn1)C(=O)N[C@@H](CCC(N)=O)C(=O)N[C@@H](CCCCNC(=N)N)C(=O)NC(C)(C)C(=O)N[C@@H](CCCCN)C(=O)N[C@@H](Cc1c[nH]c2ccccc12)C(N)=O
notes: Aib scan of [M]PTH(1-14); Aib replaces the Ala^12 of [M]; also called 633 Aib-12
B3: [Aib^1,3,M]PTH(1-11) (peptide)
peptide: [Aib]V[Aib]EIQLMHQ[hArg]-NH2
modifications: N-terminus assumed
SMILES: CC[C@H](C)[C@H](NC(=O)[C@H](CCC(=O)O)NC(=O)C(C)(C)NC(=O)[C@@H](NC(=O)C(C)(C)N)C(C)C)C(=O)N[C@@H](CCC(N)=O)C(=O)N[C@@H](CC(C)C)C(=O)N[C@@H](CCSC)C(=O)N[C@@H](Cc1c[nH]cn1)C(=O)N[C@@H](CCC(N)=O)C(=O)N[C@@H](CCCCNC(=N)N)C(N)=O
notes: also called 682 [Aib^1,3, M]PTH (1-11); [Aib^1,3,Gln^10,Har^11]PTH(1-11)
B4: [Aib^3,M]PTH(1-14) (peptide)
peptide: AV[Aib]EIQLMHQ[hArg]AKW-NH2
modifications: N-terminus assumed
SMILES: CC[C@H](C)[C@H](NC(=O)[C@H](CCC(=O)O)NC(=O)C(C)(C)NC(=O)[C@@H](NC(=O)[C@H](C)N)C(C)C)C(=O)N[C@@H](CCC(N)=O)C(=O)N[C@@H](CC(C)C)C(=O)N[C@@H](CCSC)C(=O)N[C@@H](Cc1c[nH]cn1)C(=O)N[C@@H](CCC(N)=O)C(=O)N[C@@H](CCCCNC(=N)N)C(=O)N[C@@H](C)C(=O)N[C@@H](CCCCN)C(=O)N[C@@H](Cc1c[nH]c2ccccc12)C(N)=O
notes: also called 624 Aib-3
B5: [Aib^13,M]PTH(1-14) (peptide)
peptide: AVAEIQLMHQ[hArg]A[Aib]W-NH2
modifications: N-terminus assumed
SMILES: CC[C@H](C)[C@H](NC(=O)[C@H](CCC(=O)O)NC(=O)[C@H](C)NC(=O)[C@@H](NC(=O)[C@H](C)N)C(C)C)C(=O)N[C@@H](CCC(N)=O)C(=O)N[C@@H](CC(C)C)C(=O)N[C@@H](CCSC)C(=O)N[C@@H](Cc1c[nH]cn1)C(=O)N[C@@H](CCC(N)=O)C(=O)N[C@@H](CCCCNC(=N)N)C(=O)N[C@@H](C)C(=O)NC(C)(C)C(=O)N[C@@H](Cc1c[nH]c2ccccc12)C(N)=O
notes: Aib scan of [M]PTH(1-14); also called 634 Aib-13
B6: [Aib^14,M]PTH(1-14) (peptide)
peptide: AVAEIQLMHQ[hArg]AK[Aib]-NH2
modifications: N-terminus assumed
SMILES: CC[C@H](C)[C@H](NC(=O)[C@H](CCC(=O)O)NC(=O)[C@H](C)NC(=O)[C@@H](NC(=O)[C@H](C)N)C(C)C)C(=O)N[C@@H](CCC(N)=O)C(=O)N[C@@H](CC(C)C)C(=O)N[C@@H](CCSC)C(=O)N[C@@H](Cc1c[nH]cn1)C(=O)N[C@@H](CCC(N)=O)C(=O)N[C@@H](CCCCNC(=N)N)C(=O)N[C@@H](C)C(=O)N[C@@H](CCCCN)C(=O)NC(C)(C)C(N)=O
notes: Aib scan of [M]PTH(1-14); Aib replaces the Trp^14 of [M]; also called 635 Aib-14

Experiments:
[1] = target: wild-type human PTH/PTHrP receptor (hP1R-WT) (human) (UniProt Q03431); assay: cell-based or functional assay
[2] = target: T1, wild-type human PTH/PTHrP receptor …; assay: cell-based or functional assay
[3] = target: T1, wild-type human PTH/PTHrP receptor …; assay: cell-based or functional assay; remark: listed apart in the source
[4] = target: T1, wild-type human PTH/PTHrP receptor …; assay: competition binding, 125I-[M]PTH(1-21) tracer, HKRK-B28 cells
Description: (§1) Cells were then placed on ice, the binding medium was removed, and the monolayer was rinsed three times with 0.5 mL of cold binding buffer. The cells were subsequently lysed with 0.5 mL […] NaOH and counted for radioactivity. For each tracer and in each experiment, the non-specific binding was determined as the radioactivity that bound in the presence of the same unlabeled peptide at a concentration of 1 μM, and was ˜1% of total radioactivity added for each tracer. The maximum specific binding (B₀) was the total radioactivity bound in the absence of competing ligand, corrected for nonspecific binding, and for each tracer, ranged from 8% to 20% of the total radioactivity added. Nonlinear regression was used to calculate binding IC₅₀ values (see below). Scatchard transformations of homologous competition binding data derived from studies with 26 fmol of ¹²⁵I-[Aib^{1,3},M]PTH(1-21) were employed for estimations of apparent equilibrium dissociation constant (kDapps) and total number of ligand binding sites (Bₘₐₓ), assuming a single class of binding sites and equal affinities of the iodinated and non iodinated ligand.
Relative to the apparent binding affinity of [M]PTH(1-14), most of the Aib substitutions reduced affinity, in accordance with the corresponding effects on cAMP-signaling potency (Table 1).

[5] = target: T1, wild-type human PTH/PTHrP receptor …; assay: competition binding, 125I-[M]PTH(1-21) tracer, HKRK-B28 cells, 4 h at 4 C
Description: as §1, with “Competition Binding. Binding reactions were performed with HKRK-B28 cells or in COS-7 cells in 24-well plates. The cells were rinsed with 0.5 mL of binding buffer, and then treated successively with 100 μL binding buffer, 100 μL of binding buffer containing various amounts of unlabeled competitor ligand, and 100 μL of binding buffer containing ca. 100,000 cpm of ¹²⁵I-[M]PTH(1-21) or ¹²⁵I-[Aib^{1,3},M]PTH(1-21)} (ca. 26 fmol; final volume=300 μL). Incubations were 4 to 6 h at 4° C., at which time near equilibrium conditions were attained. Cells” for “Cells”
Peptides PTH(1-34) ([Nle^{8,21}, Tyr³⁴]PTH(1-34)amide), [M]PTH(1-14) (M = Ala^{3,12}, Gln¹⁰, Har¹¹, Trp¹⁴), and [M]PTH(1-14 analogs, or C-terminally truncated derivatives thereof, containing α-aminoisobutyric acid (Aib) substitutions at the indicated positions were functionally evaluated in HKRK-B28 cells. “M” in [Aib^{1,3}, M]PTH(1-21) = Nle⁸, Gln¹⁰, Har¹¹, Ala¹², Trp¹⁴, Arg¹⁹ and Tyr²¹. The basal cAMP values (not subtracted) were 4.0 ± 0.1 pmole/well (n = 10). Peptides were based on the rat PTH sequence and were carboxy-amidated. Competition binding analyses were performed with ¹²⁵I-[M]PTH(1-21 )amide (Ala^{1,3}) as tracer for 4 h at 4° C. Data are means (±S.E.M.) Of the number of experiments indiated (n).

[6] = target: T1, wild-type human PTH/PTHrP receptor …; assay: cell-based or functional assay; remark: listed apart in the source
[7] = target: T2, truncated human P1R deleted for …; assay: cell-based or functional assay
[8] = target: T1, wild-type human PTH/PTHrP receptor …; assay: competition binding, 125I-[Aib1,3,M]PTH(1-21) tracer, COS-7 cells expressing hP1R-WT
Description: as §1, with “Competition Binding. Binding reactions were performed with HKRK-B28 cells or in COS-7 cells in 24-well plates. The cells were rinsed with 0.5 mL of binding buffer, and then treated successively with 100 μL binding buffer, 100 μL of binding buffer containing various amounts of unlabeled competitor ligand, and 100 μL of binding buffer containing ca. 100,000 cpm of ¹²⁵I-[M]PTH(1-21) or ¹²⁵I-[Aib^{1,3},M]PTH(1-21)} (ca. 26 fmol; final volume=300 μL). Incubations were 4 to 6 h at 4° C., at which time near equilibrium conditions were attained. Cells” for “Cells”

[9] = target: T2, truncated human P1R deleted for …; assay: competition binding, 125I-[Aib1,3,M]PTH(1-21) tracer, COS-7 cells expressing hP1R-delNt
Description: Stock solutions of EGTA/trypsin and antibiotics were from GIBCO; fetal bovine serum was from Hyclone Laboratories (Logan, Utah). […] All cells, in 24-well plates, were treated with fresh media and shifted to 33° C. for 12 to 24 h prior to assay.
as §1, with “Competition Binding. Binding reactions were performed with HKRK-B28 cells or in COS-7 cells in 24-well plates. The cells were rinsed with 0.5 mL of binding buffer, and then treated successively with 100 μL binding buffer, 100 μL of binding buffer containing various amounts of unlabeled competitor ligand, and 100 μL of binding buffer containing ca. 100,000 cpm of ¹²⁵I-[M]PTH(1-21) or ¹²⁵I-[Aib^{1,3},M]PTH(1-21)} (ca. 26 fmol; final volume=300 μL). Incubations were 4 to 6 h at 4° C., at which time near equilibrium conditions were attained. Cells” for “Cells”

Molecule | cAMP EC50 [2] | cAMP EMax(obs.) [2] | IC50 [5] | fold reduction in affinity relative to [M]PTH(1-14) [4] | also measured
[Aib^11,M]PTH(1-14) (peptide) |  |  |  |  | cAMP EC50 [1]: 67000 nM; cAMP EMax(obs.) [1]: 96 pmole/well
B1 | 10 nM | 273 pmole/well | 980 nM |  | cAMP EC50 in SaOS-2 cells [3]: 22 nM; cAMP EMAX(obs.) in SaOS-2 cells [3]: 340 pmole/well; fold improvement in affinity relative to [M]PTH(1-14) [4]: 13 fold
B2 | 440 nM | 263 pmole/well | 15000 nM | < 10 fold | 
B3 | 4 nM | 243 pmole/well | 970 nM |  | cAMP EC50 [6]: 2.1 nM; cAMP EMax(obs.) [6]: 190 pmole/well; cAMP EC50 [7]: 2 nM; cAMP EMax(obs.) [7]: 220 pmole/well; IC50 [8]: 16000 nM; IC50 [9]: 13000 nM
B4 | 13 nM | 269 pmole/well | 1700 nM |  | cAMP EC50 in SaOS-2 cells [3]: 42 nM; cAMP EMAX(obs.) in SaOS-2 cells [3]: 330 pmole/well; fold improvement in affinity relative to [M]PTH(1-14) [4]: 8 fold
B5 | 480 nM | 259 pmole/well | 44000 nM | < 10 fold | 
B6 | 350 nM | 273 pmole/well | 79000 nM | < 10 fold | 
